In the Immune Epitope Database (IEDB):

Assays:
[1] = molecular target: HLA-B*40:01; assay: IEDB peptide-MHC binding, purified MHC/direct/fluorescence; filed as Kd, often an IC50 or EC50 that approximates it; ≥ and ≤ were set here for values at or beyond the usual limits of such assays
[2] = molecular target: HLA-A*30:02; assay: IEDB peptide-MHC binding, purified MHC/competitive/radioactivity; filed as Kd, often an IC50 or EC50 that approximates it; ≥ and ≤ were set here for values at or beyond the usual limits of such assays
[3] = molecular target: HLA-B*44:02; assay: as above; details: source organism: Dengue virus 3 Martinique/1243/1999
[4] = molecular target: HLA-B*08:01; assay: as above
[5] = molecular target: HLA-B*15:01; assay: IEDB peptide-MHC binding, purified MHC/direct/fluorescence; filed as Kd, often an IC50 or EC50 that approximates it; ≥ and ≤ were set here for values at or beyond the usual limits of such assays
[6] = molecular target: HLA-A*02:01; assay: as above
[7] = molecular target: HLA-A*69:01; assay: as above
[8] = molecular target: HLA-A*02:01; assay: IEDB peptide-MHC binding, purified MHC/competitive/fluorescence; ≥ and ≤ were set here for values at or beyond the usual limits of such assays
[9] = molecular target: HLA-A*31:01; assay: IEDB peptide-MHC binding, purified MHC/direct/fluorescence; filed as Kd, often an IC50 or EC50 that approximates it; ≥ and ≤ were set here for values at or beyond the usual limits of such assays
[10] = molecular target: HLA-A*03:01; assay: as above
[11] = molecular target: HLA-A*30:01; assay: IEDB peptide-MHC binding, purified MHC/competitive/radioactivity; filed as Kd, often an IC50 or EC50 that approximates it; ≥ and ≤ were set here for values at or beyond the usual limits of such assays
[12] = molecular target: HLA-A*01:01; assay: as above
[13] = molecular target: HLA-A*26:01; assay: as above
[14] = molecular target: HLA-B*58:01; assay: IEDB peptide-MHC binding, purified MHC/direct/fluorescence; filed as Kd, often an IC50 or EC50 that approximates it; ≥ and ≤ were set here for values at or beyond the usual limits of such assays
[15] = molecular target: HLA-B*07:02; assay: as above; details: source organism: Escherichia coli O157:H7
[16] = molecular target: HLA-B*27:05; assay: as above; details: source organism: Escherichia coli O157:H7
[17] = molecular target: HLA-B*39:01; assay: IEDB peptide-MHC binding, purified MHC/competitive/fluorescence; filed as Kd, often an IC50 or EC50 that approximates it; ≥ and ≤ were set here for values at or beyond the usual limits of such assays; details: source organism: Bacillus anthracis str. A2012
[18] = molecular target: HLA-A*11:01; assay: IEDB peptide-MHC binding, purified MHC/competitive/radioactivity; filed as Kd, often an IC50 or EC50 that approximates it; ≥ and ≤ were set here for values at or beyond the usual limits of such assays; details: source organism: Dengue virus 1 Brazil/97-11/1997
[19] = molecular target: HLA-A*11:01; assay: IEDB peptide-MHC binding, purified MHC/direct/fluorescence; filed as Kd, often an IC50 or EC50 that approximates it; ≥ and ≤ were set here for values at or beyond the usual limits of such assays
[20] = molecular target: HLA-A*01:01; assay: as above; details: source organism: Yersinia enterocolitica
[21] = molecular target: HLA-A*02:02; assay: IEDB peptide-MHC binding, purified MHC/competitive/radioactivity; filed as Kd, often an IC50 or EC50 that approximates it; ≥ and ≤ were set here for values at or beyond the usual limits of such assays; details: source organism: SARS coronavirus Tor2
[22] = molecular target: HLA-A*02:03; assay: as above; details: source organism: SARS coronavirus Tor2
[23] = molecular target: HLA-A*02:06; assay: as above; details: source organism: SARS coronavirus Tor2
[24] = source organism: Dengue virus 1 Brazil/97-11/1997
[25] = source organism: Mycobacterium tuberculosis variant bovis
[26] = source organism: Zaire ebolavirus
[27] = source organism: Burkholderia pseudomallei
[28] = source organism: Vaccinia virus WR
[29] = source organism: Dengue virus 4 Philippines/H241/1956
[30] = source organism: Dengue virus 2 Jamaica/1409/1983
[31] = source organism: Dengue virus 3 Martinique/1243/1999
[32] = source organism: Escherichia coli O157:H7
[33] = source organism: Mycobacterium tuberculosis
[34] = source organism: Francisella tularensis subsp. holarctica LVS
[35] = source organism: Haemophilus influenzae
[36] = source organism: Yersinia enterocolitica
[37] = source organism: Salmonella enterica subsp. enterica serovar Typhimurium

AELRHLNPL
Kd ([1]; source organism: Mycobacterium tuberculosis variant bovis BCG str. Pasteur 1173P2): 0.0442 µM

AGGMLIACY
Kd [2, 24]: 0.46 µM

AICSAVPVHW
Kd [3]: 2.4 µM

AIKRKLRTL
Kd [4, 24]: 17.3 nM

AISAQVAAY
Kd ([5]; source organism: Mycobacterium tuberculosis F11): 1.27 µM

ALASFLFGF
Kd ([5]; source organism: Pseudomonas aeruginosa): 0.745 µM

ALPGPDGVV
Kd [6, 25]: 0.553 µM
Kd [7, 25]: ≥ 20 µM

ALSSLAKHG
IC50 [8, 26]: ≥ 91.8 µM

ALVCGLRQL
IC50 ([8]; source organism: Sudan ebolavirus): 22.8 µM

AQAIGRVER
Kd [9, 27]: 0.0373 µM
Kd [10, 27]: ≥ 20 µM

ATKNGNIFV
Kd [11, 28]: 0.00385 µM

CIAVGMVTLY
Kd [12, 24]: 1.38 µM
Kd [13, 24]: 0.483 µM

CMKSFFGWK
Kd ([10]; source organism: Influenza A virus (A/duck/Fujian/17/2001(H5N1))): 0.848 µM

CPRKRKTVE
Kd [4, 28]: 581 nM

EEITPHCAL
Kd ([1]; source organism: Mammarenavirus lassaense): 0.0266 µM

ELDLHFQRI
Kd [4, 28]: 3260 nM

EMADITGSSP
Kd [13, 29]: ≥ 46.7 µM

EMAEALKGM
Kd [13, 24]: 8.32 µM

ETKQTGSASS
Kd [13, 30]: ≥ 25 µM

ETPNMDVIGE
Kd [13, 31]: 1.1 µM

ETWVETWAF
Kd [14, 32]: 3 µM
Kd [6, 32]: ≥ 20 µM
Kd [15]: ≥ 20 µM
Kd [16]: ≥ 20 µM
Kd [10, 32]: ≥ 20 µM
Kd [5, 32]: 1.17 µM

FCIKILNPY
Kd [13, 24]: 7.7 µM

FHMSKPSDL
Kd [17]: 0.0077 µM

FLKHKYGSL
Kd [4, 28]: 0.135 nM

FTEENQWDSA
Kd [12, 31]: 0.197 µM

FTNMEVQLI
Kd [12, 24]: 5.85 µM

FYRKKFRPL
Kd [4, 28]: 0.0879 nM

GCGRGGWSY
Kd [2, 31]: 0.439 µM

GLFLTTEAV
IC50 [8, 33]: 0.05 µM

GLFPFHFTL
Kd [6, 33]: 0.0004 µM

GMHMVAGHD
IC50 [8, 26]: 67.8 µM

GSLLTCAKFK
Kd [18]: 0.0968 µM
Kd [11, 24]: 0.433 µM

GTTATITPQA
Kd ([11]; source organism: Dengue virus 1 Nauru/West Pac/1974): 0.839 µM

GVYTGSIGY
Kd [19, 34]: 0.0016 µM
Kd [10, 34]: 0.0026 µM

HTIENTTAN
Kd [13, 24]: 2.29 µM

HVLMHSPLV
Kd [11, 28]: 0.0299 µM

IIGRRLQRL
Kd [4, 29]: 128 nM

ILWGYGFLQ
Kd [14, 35]: 4.79 µM
Kd [6, 35]: 0.218 µM
Kd [7, 35]: 12.9 µM

IMDASSFTL
Kd [14, 36]: 0.0495 µM
Kd [6, 36]: 0.0308 µM
Kd [20]: 5.7 µM
Kd [7, 36]: 0.997 µM
Kd [1, 36]: 0.432 µM
Kd [5, 36]: 0.139 µM

IQQLPETYF
Kd ([14]; source organism: SARS-CoV1): ≥ 23.4 µM
Kd ([6]; source organism: SARS-CoV1): 16.8 µM
Kd ([19]; source organism: SARS-CoV1): ≥ 51 µM
Kd ([5]; source organism: SARS-CoV1): 0.188 µM

IRSEELSFT
IC50 [8, 26]: ≥ 2410 µM

KCIEYVTLN
IC50 ([8]; source organism: Vaccinia virus Copenhagen): ≥ 125 µM

KLWAQCVQL
Kd ([6]; source organism: SARS-CoV1): 0.109 µM
Kd ([9]; source organism: SARS-CoV1): 0.303 µM
Kd ([10]; source organism: SARS-CoV1): 2.86 µM
Kd [21]: 0.0127 µM
Kd [22]: 0.194 µM
Kd [23]: 0.00947 µM

KQPNRPLFI
Kd [6, 37]: 6 µM
Kd [7, 37]: ≥ 20 µM

KTNTGTIGA
Kd [11, 30]: 0.00294 µM

KVKFYKREL
Kd [11, 28]: 0.0419 µM

KVLDGSPIS
Kd [11, 28]: 0.43 µM

KVSSKHQLV
Kd [11, 28]: 0.014 µM

LAKRFSRGLL
Kd ([4]; source organism: Dengue virus 3 Singapore/8120/1995): 1480 nM

LALITVSGLY
Kd [12, 29]: 12.7 µM
Kd [2, 29]: 0.00526 µM
